Measurements: the supplement of paper PMC10065799, “High-throughput profiling of sequence recognition by tyrosine kinases and SH2 domains using bacterial peptide display” (eLife, 2023)

Experiments:
c-Src SH2 = assay: SH2 binding enrichment of the phosphorylated peptide, bacterial display (enrichment ratio); higher = better substrate or ligand; peptides without Tyr show the background
SHP2-C SH2 = assay: as above
Grb2 SH2 = Grb2 SH2 (UniProt P62993); assay: as above
c-Src = assay: phosphorylation enrichment, bacterial display (enrichment ratio); higher = better substrate or ligand; peptides without Tyr show the background
Fes = Fes (UniProt P07332); assay: as above
EPHB2 = EPHB2 (UniProt P29323); assay: as above
Jak2 = Jak2 (UniProt O60674); assay: as above
Hck = Hck (UniProt P08631); assay: as above
FGFR1 = FGFR1 (UniProt P11362); assay: as above
MERTK = MERTK (UniProt Q12866); assay: as above
Fyn = Fyn (UniProt P06241); assay: as above
EPHB1 = EPHB1 (UniProt P54762); assay: as above
AncSZ = assay: as above
c-Abl (mouse) = assay: as above
FGFR3 = FGFR3 (UniProt P22607); assay: as above
Fer (mouse) = assay: as above
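For SH2 binding enrichment of the phosphorylated peptide, bacterial display in this document: peptide library displayed on the E. coli surface as eCPX fusions, selected cells deep-sequenced, score is each peptide's frequency after selection divided by its frequency in the input.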
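For phosphorylation enrichment, bacterial display in this document: 11-residue human phosphosite peptides and single-mutation variants displayed on the E. coli surface, counted by deep sequencing, each peptide's frequency after selection divided by its frequency in the unselected input library; frequency after pTyr selection over input frequency; kinase dosed for 20-30% of maximal phosphorylation in three min.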

Hck, sequence (P08631 whole entry, looked up): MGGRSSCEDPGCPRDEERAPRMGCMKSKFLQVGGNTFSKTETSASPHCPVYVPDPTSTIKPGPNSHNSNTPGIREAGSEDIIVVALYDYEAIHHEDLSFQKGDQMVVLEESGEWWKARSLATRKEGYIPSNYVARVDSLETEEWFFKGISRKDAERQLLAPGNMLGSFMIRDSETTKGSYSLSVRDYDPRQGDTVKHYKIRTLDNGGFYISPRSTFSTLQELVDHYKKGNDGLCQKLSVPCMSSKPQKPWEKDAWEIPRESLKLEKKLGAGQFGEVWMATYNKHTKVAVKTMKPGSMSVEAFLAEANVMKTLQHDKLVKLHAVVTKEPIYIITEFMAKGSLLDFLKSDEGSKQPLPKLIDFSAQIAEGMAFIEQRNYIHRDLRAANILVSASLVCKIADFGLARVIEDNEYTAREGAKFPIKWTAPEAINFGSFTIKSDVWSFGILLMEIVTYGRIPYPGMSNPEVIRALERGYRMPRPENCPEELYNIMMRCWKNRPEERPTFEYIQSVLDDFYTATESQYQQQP
Fyn, sequence (P06241 whole entry, looked up): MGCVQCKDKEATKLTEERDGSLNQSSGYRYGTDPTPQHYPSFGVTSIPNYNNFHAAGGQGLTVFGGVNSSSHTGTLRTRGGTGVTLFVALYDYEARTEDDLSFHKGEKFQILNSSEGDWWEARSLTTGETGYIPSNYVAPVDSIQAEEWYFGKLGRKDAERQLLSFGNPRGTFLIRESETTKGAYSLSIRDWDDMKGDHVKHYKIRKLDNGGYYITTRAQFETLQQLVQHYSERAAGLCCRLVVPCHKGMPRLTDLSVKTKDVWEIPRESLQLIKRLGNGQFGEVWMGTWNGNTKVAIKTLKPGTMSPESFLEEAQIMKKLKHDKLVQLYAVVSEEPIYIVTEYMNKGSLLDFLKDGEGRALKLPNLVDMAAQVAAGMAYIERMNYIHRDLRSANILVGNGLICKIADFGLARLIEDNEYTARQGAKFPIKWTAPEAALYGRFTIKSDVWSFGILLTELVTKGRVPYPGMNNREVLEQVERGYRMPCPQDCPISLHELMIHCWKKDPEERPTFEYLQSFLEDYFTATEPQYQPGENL
FGFR3, sequence (P22607 whole entry, looked up): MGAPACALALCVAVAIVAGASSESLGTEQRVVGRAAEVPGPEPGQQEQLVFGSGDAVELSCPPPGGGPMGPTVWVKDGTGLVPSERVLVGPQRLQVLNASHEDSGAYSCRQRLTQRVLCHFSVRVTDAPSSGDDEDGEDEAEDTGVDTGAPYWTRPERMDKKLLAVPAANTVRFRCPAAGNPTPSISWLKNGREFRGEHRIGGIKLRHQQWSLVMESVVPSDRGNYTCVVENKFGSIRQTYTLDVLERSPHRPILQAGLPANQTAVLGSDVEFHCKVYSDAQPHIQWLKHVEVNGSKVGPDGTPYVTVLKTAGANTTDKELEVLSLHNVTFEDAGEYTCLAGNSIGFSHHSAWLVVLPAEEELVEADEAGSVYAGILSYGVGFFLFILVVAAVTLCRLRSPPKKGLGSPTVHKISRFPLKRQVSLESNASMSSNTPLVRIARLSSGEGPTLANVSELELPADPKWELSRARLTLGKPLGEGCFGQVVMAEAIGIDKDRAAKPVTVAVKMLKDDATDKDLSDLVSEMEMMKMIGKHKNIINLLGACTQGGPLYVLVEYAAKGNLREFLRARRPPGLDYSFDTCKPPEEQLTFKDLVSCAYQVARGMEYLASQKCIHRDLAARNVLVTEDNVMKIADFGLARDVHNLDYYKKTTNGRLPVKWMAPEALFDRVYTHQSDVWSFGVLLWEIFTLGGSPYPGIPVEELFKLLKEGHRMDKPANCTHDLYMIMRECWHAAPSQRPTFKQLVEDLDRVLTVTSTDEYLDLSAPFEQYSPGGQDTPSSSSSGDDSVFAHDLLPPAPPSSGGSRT
EPHB2, sequence (P29323 whole entry, looked up): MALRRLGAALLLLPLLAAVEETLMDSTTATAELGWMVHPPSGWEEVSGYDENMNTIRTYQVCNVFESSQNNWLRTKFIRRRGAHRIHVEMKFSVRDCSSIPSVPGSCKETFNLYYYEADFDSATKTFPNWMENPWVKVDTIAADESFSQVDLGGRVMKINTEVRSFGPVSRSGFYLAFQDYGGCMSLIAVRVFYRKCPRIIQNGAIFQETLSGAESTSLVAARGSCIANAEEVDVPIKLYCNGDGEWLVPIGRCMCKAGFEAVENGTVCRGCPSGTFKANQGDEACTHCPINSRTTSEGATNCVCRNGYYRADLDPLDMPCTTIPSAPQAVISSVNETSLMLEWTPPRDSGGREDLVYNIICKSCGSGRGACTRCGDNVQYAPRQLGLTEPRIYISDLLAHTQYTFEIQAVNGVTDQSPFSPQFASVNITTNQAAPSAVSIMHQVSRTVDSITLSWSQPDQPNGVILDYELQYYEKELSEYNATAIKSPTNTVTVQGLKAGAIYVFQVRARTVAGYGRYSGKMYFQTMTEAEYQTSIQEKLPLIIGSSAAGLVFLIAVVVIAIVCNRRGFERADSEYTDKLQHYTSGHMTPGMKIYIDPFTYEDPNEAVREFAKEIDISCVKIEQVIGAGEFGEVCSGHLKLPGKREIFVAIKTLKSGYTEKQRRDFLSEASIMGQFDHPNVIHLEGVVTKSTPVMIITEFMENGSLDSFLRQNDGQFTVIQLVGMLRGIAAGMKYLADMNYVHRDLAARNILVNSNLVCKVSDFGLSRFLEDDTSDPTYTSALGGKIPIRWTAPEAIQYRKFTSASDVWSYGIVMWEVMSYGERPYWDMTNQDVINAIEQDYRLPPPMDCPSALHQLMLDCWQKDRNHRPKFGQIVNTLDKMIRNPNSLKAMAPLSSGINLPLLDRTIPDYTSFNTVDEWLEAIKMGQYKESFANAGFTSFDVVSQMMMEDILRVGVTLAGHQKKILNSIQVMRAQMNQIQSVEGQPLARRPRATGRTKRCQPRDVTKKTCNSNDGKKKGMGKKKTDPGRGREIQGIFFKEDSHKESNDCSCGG
EPHB1, sequence (P54762 whole entry, looked up): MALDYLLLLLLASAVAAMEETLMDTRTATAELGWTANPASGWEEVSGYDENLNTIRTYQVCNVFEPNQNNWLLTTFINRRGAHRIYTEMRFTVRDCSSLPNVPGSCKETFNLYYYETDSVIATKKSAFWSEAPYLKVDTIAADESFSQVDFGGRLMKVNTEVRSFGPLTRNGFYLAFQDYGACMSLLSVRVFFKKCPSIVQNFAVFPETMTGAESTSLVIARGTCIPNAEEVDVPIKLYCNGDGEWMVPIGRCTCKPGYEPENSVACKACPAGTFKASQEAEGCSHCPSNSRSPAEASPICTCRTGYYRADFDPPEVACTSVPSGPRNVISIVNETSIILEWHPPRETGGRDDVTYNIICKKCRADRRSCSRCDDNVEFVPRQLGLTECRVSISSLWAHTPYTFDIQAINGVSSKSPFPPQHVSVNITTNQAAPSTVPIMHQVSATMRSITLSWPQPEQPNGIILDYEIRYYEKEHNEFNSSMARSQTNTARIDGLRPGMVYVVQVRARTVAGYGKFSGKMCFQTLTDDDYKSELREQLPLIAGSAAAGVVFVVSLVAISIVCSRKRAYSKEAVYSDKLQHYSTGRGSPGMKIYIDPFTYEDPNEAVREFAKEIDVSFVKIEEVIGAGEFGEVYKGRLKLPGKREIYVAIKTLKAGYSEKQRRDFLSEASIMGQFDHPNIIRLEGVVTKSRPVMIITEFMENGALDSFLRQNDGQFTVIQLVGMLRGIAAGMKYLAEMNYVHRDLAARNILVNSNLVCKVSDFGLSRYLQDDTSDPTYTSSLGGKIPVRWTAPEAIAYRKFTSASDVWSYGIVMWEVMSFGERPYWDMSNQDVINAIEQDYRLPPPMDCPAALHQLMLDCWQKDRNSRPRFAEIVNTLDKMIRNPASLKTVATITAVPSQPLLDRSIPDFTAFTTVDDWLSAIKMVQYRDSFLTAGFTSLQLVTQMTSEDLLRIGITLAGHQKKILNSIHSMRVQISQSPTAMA
FGFR1, sequence (P11362 whole entry, looked up): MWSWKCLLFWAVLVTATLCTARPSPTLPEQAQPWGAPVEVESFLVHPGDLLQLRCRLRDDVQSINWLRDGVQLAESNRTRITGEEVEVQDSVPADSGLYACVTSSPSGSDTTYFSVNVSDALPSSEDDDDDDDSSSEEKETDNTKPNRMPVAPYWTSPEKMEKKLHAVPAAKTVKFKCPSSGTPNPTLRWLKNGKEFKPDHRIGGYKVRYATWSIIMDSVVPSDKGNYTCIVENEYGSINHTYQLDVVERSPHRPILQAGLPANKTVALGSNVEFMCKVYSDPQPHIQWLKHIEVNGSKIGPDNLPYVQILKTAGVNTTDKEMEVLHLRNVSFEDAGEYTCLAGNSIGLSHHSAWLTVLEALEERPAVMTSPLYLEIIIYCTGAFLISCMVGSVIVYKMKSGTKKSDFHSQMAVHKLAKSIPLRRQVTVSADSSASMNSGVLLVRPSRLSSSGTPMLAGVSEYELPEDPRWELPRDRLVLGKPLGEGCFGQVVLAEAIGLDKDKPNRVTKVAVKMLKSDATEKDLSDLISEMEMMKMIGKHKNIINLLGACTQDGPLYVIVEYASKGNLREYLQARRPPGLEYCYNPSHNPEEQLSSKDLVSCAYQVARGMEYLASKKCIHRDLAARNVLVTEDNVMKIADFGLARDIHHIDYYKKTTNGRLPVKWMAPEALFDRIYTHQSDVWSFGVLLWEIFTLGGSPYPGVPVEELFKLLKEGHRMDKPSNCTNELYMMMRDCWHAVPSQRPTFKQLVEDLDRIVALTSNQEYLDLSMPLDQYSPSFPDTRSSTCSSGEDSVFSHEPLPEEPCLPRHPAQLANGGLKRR

SH2 binding enrichment (c-Src SH2)	SH2 binding enrichment (SHP2-C SH2)	SH2 binding enrichment (Grb2 SH2)	Sequence	phosphorylation enrichment (c-Src)	phosphorylation enrichment (Fes)	phosphorylation enrichment (EPHB2)	phosphorylation enrichment (Jak2)	phosphorylation enrichment (Hck)	phosphorylation enrichment (FGFR1)	phosphorylation enrichment (MERTK)	phosphorylation enrichment (Fyn)	phosphorylation enrichment (EPHB1)	phosphorylation enrichment (AncSZ)	phosphorylation enrichment (c-Abl (mouse))	phosphorylation enrichment (FGFR3)	phosphorylation enrichment (Fer (mouse))
0.425	0.443	0.694	NRDNTYNPVSE [FGA_Y127_R129P]	0.522	0.857	0.465	0.699	0.658	0.457	0.486	0.562	0.544	0.751	0.545	0.627	0.481
0.428	0.465	0.699	VSRGRYRPEEC [B4GALT4_Y113_Q116E]	0.562	0.512	0.51	0.561	0.522	0.439	0.614	0.472	0.443	0.692	0.568	0.524	0.52
0.471	0.676	0.89	KVGNEYVTKGQ [MYH7_Y410]	0.339	0.578	0.495	0.471	0.334	0.393	0.332	0.3	0.303	0.492	0.469	0.422	0.269
0.434	0.495	0.606	STEAIYWRFSK [SH3PXD2B_Y42_R43W_YF]	2.98	1.51	0.74	1.29	2.51	0.913	1.32	3.69	1.05	1.2	7.78	1.13	0.564
0.427	0.555	0.63	CETMEYLESKQ [BTK_Y511_A508T]	0.531	1.56	0.734	1.43	0.677	0.688	0.527	0.578	0.737	1.6	0.98	0.966	0.705
0.489	0.632	0.936	DGTIVCTGLET [USH2A_Y4487_Y4487C]	0.499	1.12	0.558	1.06	0.438	0.509	0.47	0.454	0.533	0.955	0.837	0.636	0.582
2.5	6.85	0.893	DVFRQYASLTG [GANAB_Y379]	0.402	0.709	0.44	0.589	0.448	0.395	0.406	0.379	0.422	0.568	0.573	0.428	0.417
1.23	0.651	0.77	YVGGFYGGCNE [CTSC_Y352]	0.786	1.14	0.553	1.06	0.984	0.639	0.682	0.864	0.54	1.17	0.869	0.962	0.786
2.04	12.4	1.22	ISKKHYAGLLF [POLD1_Y809_R808H]	0.436	0.671	0.381	0.636	0.46	0.468	0.456	0.42	0.317	0.545	0.521	0.643	0.469
0.411	0.691	0.793	DLGIQYKVLKP [CTNNA1_Y177_A179V]	0.521	1.28	0.624	1.12	0.548	0.481	0.413	0.46	0.462	1.1	0.759	0.692	0.417
2.35	0.821	1.68	NYCPGYNNFYN [USH2A_Y467_R464C]	1.26	1.06	0.753	1.12	0.613	0.638	0.566	0.64	0.888	0.988	0.761	0.791	0.588
0.405	0.547	0.862	VGNPAYRSFSN [IL4R_Y497_A492V]	0.376	0.546	0.417	0.608	0.329	0.412	0.374	0.441	0.368	0.518	0.478	0.435	0.509
0.543	0.508	0.952	SARFRYLMAEK [LDHB_Y173]	0.436	0.652	0.467	0.692	0.435	0.352	0.397	0.365	0.436	0.695	0.566	0.469	0.348
1.28	0.649	0.857	TEQDPYNNIVR [MMUT_Y364]	0.581	0.978	0.499	0.881	0.555	0.466	0.451	0.545	0.5	1.01	0.582	0.601	0.45
0.496	0.639	0.703	AGQEKYSAMRD [HRAS_Y64_E63K]	0.416	0.837	0.424	0.618	0.423	0.324	0.312	0.427	0.318	0.574	0.604	0.498	0.37
0.532	0.716	1	EFISESCGEII [EZH2_Y641_Y641S]	0.568	1.19	0.752	1.04	0.476	0.567	0.419	0.484	0.544	1.17	0.783	0.592	0.484
0.627	0.663	0.98	ENFSEYQEIAV [HEMGN_Y150]	0.616	1.24	1.24	1.28	0.984	1.59	0.507	0.586	2.29	1.51	0.957	1.38	1.4
0.488	0.752	0.769	MKALGYFAVVT [OPA1_Y498]	0.436	1.53	0.773	1.62	0.825	0.579	0.403	0.63	0.852	1.25	0.892	0.996	0.655
0.562	0.664	0.737	GDFSRYDEGSG [RECQL5_Y484]	0.534	1.16	0.481	0.905	0.494	0.471	0.513	0.502	0.523	0.889	0.799	0.662	0.439
1.34	1.82	2.02	LRWREYQRQDF [PRKRIP1_Y90_R87W_YF]	2.67	4.93	2.29	6.28	2.04	2.28	1.69	1.01	1.91	4.24	3.64	2.67	1.67
2.83	0.875	0.963	EERNPYYSSAR [MCCC2_Y520_G517R]	1.56	0.749	0.5	0.923	0.828	0.487	0.468	0.654	0.472	0.942	0.591	0.552	0.505
0.668	0.747	0.943	VTQEQYELFCE [CBL_Y368_YF]	0.744	1.24	0.848	1.54	0.646	0.543	0.624	0.599	0.86	1.4	3.12	0.957	0.737
0.608	0.748	0.935	GGCQEYTGAPY [NAXD_Y85]	0.52	1.06	0.587	0.83	0.577	0.627	0.409	0.525	0.636	1.35	0.699	0.843	0.524
0.491	0.558	0.819	IDGLEYLHSPG [STK11_Y166_Q170P]	0.37	0.69	0.584	0.746	0.454	0.467	0.431	0.44	0.377	0.931	0.5	0.543	0.426
0.54	0.827	0.963	NFHRGYHLQVL [CD200R1L_Y138]	0.353	0.835	0.475	0.54	0.375	0.453	0.351	0.5	0.483	0.755	0.787	0.606	0.478
0.483	0.765	0.975	SLLTDCSPQLQ [OTC_Y345_Y345C]	0.475	1.06	0.548	0.905	0.554	0.518	0.441	0.454	0.567	0.999	0.768	0.707	0.522
0.489	0.724	0.775	SGGLDYGMVGG [TNRC6B_Y1382_M1380L]	1.88	0.722	0.973	0.636	0.76	0.446	0.43	2.21	0.527	0.765	0.523	0.537	0.476
1.79	0.595	0.938	AAGGRYYGLVG [HARS1_Y363_D364Y]	0.867	0.601	0.441	0.49	0.715	0.432	3.95	0.618	0.347	0.56	0.671	0.451	0.45
0.542	0.773	0.866	FADIAYNYRHR [PAH_Y166_G171R]	0.429	0.687	0.44	0.533	0.341	0.427	0.398	0.27	0.391	0.624	0.511	0.435	0.436
